From PMC9352680, “A comprehensive thermodynamic model for RNA binding by the Saccharomyces cerevisiae Pumilio protein PUF4”

Biological target: T1, PUF4 RNA-binding domain (Saccharomyces cerevisiae, UniProt P25339 537-888)
T1 sequence: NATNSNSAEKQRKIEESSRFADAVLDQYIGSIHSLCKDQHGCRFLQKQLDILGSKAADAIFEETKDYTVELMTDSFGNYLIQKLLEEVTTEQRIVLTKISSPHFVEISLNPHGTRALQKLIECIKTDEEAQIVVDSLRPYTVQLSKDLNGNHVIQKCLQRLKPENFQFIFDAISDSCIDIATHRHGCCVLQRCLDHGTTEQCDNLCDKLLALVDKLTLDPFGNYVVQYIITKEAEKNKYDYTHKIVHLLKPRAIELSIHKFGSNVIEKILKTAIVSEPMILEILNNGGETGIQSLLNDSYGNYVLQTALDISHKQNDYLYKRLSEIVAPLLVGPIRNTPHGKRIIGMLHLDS
Test: Mg; RNA-MaP; 20 mM Na-HEPES pH 7.4, 30 mM KOAc, 0.75 mM MgCl2, 0.1% Tween-20, 5% glycerol, 0.1 mg/mL BSA, 2 mM DTT; 25 C; 0.0125-409.6 nM protein
Details: tags: N-His6-TEV cleaved; C-SNAP kept, Cy3B-labelled; label: tethered on chip by stalled RNA polymerase

## UCUCUUUGUAAAUAACUCUCUU (ssRNA) [Ic_S1_P5E.1_K5.1_C5.1_H5.1_A5.1_[T5A]_[T6A]_[A7T]_F5.1_[T8A]_[T9A]_[A10C]_T5.1]
  Kd: 31.1 nM

## UCUCUUUGUAAAUUGUUCUCUU (ssRNA) [Ic_S1_P5E.1_K5.1_C5.1_H5.1_A5.1_[T5A]_[T6A]_[A7T]_F5.1_[T9G]_[A10T]_T5.1]
  Kd: 11.5 nM

## UCUCUUUGUAAAUUUUUCUCUU (ssRNA) [Ic_S1_P5E.1_K5.1_C5.1_H5.1_A5.1_[T5A]_[T6A]_[A7T]_F5.1_[A10T]_T5.1]
  Kd: 22.4 nM

## UCUCUUUGUAUGGUUUUCUCUU (ssRNA) [Ic_S1_P5E.1_K5.1_C5.1_H5.1_A5.1_[T6G]_[A7G]_F5.1_[A10T]_T5.1]
  Kd: 159 nM

## UCUCUUUGUACAAUAAUCUCUU (ssRNA) [Ic_S1_P5E.1_K5.1_C5.1_H5.1_A5.1_[T5C]_[T6A]_F5.1_[T9A]_T5.1]
  Kd: 1.94 nM

## UCUCUUUGUAGCACUAUCUCUU (ssRNA) [Ic_S1_P5E.1_K5.1_C5.1_H5.1_A5.1_[T5G]_[T6C]_F5.1_[T8C]_T5.1]
  Kd: 45.5 nM

## UCUCUUAGUGUAUAUCUCUU (ssRNA) [Ib_S1_P3E.1_K3.1_C3.1_H3.1_[T1A]_[A4G]_A3.1_F3.1_T3.1]
  Kd: 51.9 nM

## UCUCUUUGUAACUCGGUCUCUU (ssRNA) [Ic_S1_P5E.1_K5.1_C5.1_H5.1_A5.1_[T5A]_[T6C]_[A7T]_F5.1_[T8C]_[T9G]_[A10G]_T5.1]
  Kd: > 2300 nM

## UCUCUUUGUACGCGUCUCUCUU (ssRNA) [Ic_S1_P5E.1_K5.1_C5.1_H5.1_A5.1_[T5C]_[T6G]_[A7C]_F5.1_[T8G]_[A10C]_T5.1]
  Kd: 1980 nM

## UCUCUUUGUAAAAUUGUCUCUU (ssRNA) [Ic_S1_P5E.1_K5.1_C5.1_H5.1_A5.1_[T5A]_[T6A]_F5.1_[A10G]_T5.1]
  Kd: 22.4 nM

## UCUCUUUGUACCCGAUUCUCUU (ssRNA) [Ic_S1_P5E.1_K5.1_C5.1_H5.1_A5.1_[T5C]_[T6C]_[A7C]_F5.1_[T8G]_[T9A]_[A10T]_T5.1]
  Kd: 1050 nM

## UCUCUUUGUAUGCAUAUCUCUU (ssRNA) [Ic_S1_P5E.1_K5.1_C5.1_H5.1_A5.1_[T6G]_[A7C]_F5.1_[T8A]_T5.1]
  Kd: 36 nM

## UCUCUUUGUAUUUGCUUCUCUU (ssRNA) [Ic_S1_P5E.1_K5.1_C5.1_H5.1_A5.1_[A7T]_F5.1_[T8G]_[T9C]_[A10T]_T5.1]
  Kd: 324 nM

## UCUCUUUGUAAGUAACUCUCUU (ssRNA) [Ic_S1_P5E.1_K5.1_C5.1_H5.1_A5.1_[T5A]_[T6G]_[A7T]_F5.1_[T8A]_[T9A]_[A10C]_T5.1]
  Kd: > 2300 nM

## UCUCUUUGUAGCAUAGUCUCUU (ssRNA) [Ic_S1_P5E.1_K5.1_C5.1_H5.1_A5.1_[T5G]_[T6C]_F5.1_[T9A]_[A10G]_T5.1]
  Kd: 9.57 nM

## UCUCUUUGUAAUCUCUUCUCUU (ssRNA) [Ic_S1_P5E.1_K5.1_C5.1_H5.1_A5.1_[T5A]_[A7C]_F5.1_[T9C]_[A10T]_T5.1]
  Kd: 440 nM

## UCUCUUUCGAUAUAUCUCUU (ssRNA) [Ib_S1_P3E.1_K3.1_C3.1_H3.1_[G2C]_[T3G]_A3.1_F3.1_T3.1]
  Kd: > 2300 nM

## UCUCUUUGUAAUAAUUUCUCUU (ssRNA) [Ic_S1_P5E.1_K5.1_C5.1_H5.1_A5.1_[T5A]_F5.1_[T8A]_[A10T]_T5.1]
  Kd: 324 nM

## UCUCUUUGUAACCUCGUCUCUU (ssRNA) [Ic_S1_P5E.1_K5.1_C5.1_H5.1_A5.1_[T5A]_[T6C]_[A7C]_F5.1_[T9C]_[A10G]_T5.1]
  Kd: 123 nM

## UCUCUUUGUACACUCCUCUCUU (ssRNA) [Ic_S1_P5E.1_K5.1_C5.1_H5.1_A5.1_[T5C]_[T6A]_[A7C]_F5.1_[T9C]_[A10C]_T5.1]
  Kd: 7.65 nM

## UCUCUUUGUAUUCGGUUCUCUU (ssRNA) [Ic_S1_P5E.1_K5.1_C5.1_H5.1_A5.1_[A7C]_F5.1_[T8G]_[T9G]_[A10T]_T5.1]
  Kd: 578 nM

## UCUCUUUGUAUGUGGUUCUCUU (ssRNA) [Ic_S1_P5E.1_K5.1_C5.1_H5.1_A5.1_[T6G]_[A7T]_F5.1_[T8G]_[T9G]_[A10T]_T5.1]
  Kd: 421 nM

## UCUCUUUCCAUAUAUCUCUU (ssRNA) [Ib_S1_P3E.1_K3.1_C3.1_H3.1_[G2C]_[T3C]_A3.1_F3.1_T3.1]
  Kd: > 2300 nM

## UCUCUUUGUACGCCCCUCUCUU (ssRNA) [Ic_S1_P5E.1_K5.1_C5.1_H5.1_A5.1_[T5C]_[T6G]_[A7C]_F5.1_[T8C]_[T9C]_[A10C]_T5.1]
  Kd: 662 nM

## UCUCUUUGUAUGACCAUCUCUU (ssRNA) [Ic_S1_P5E.1_K5.1_C5.1_H5.1_A5.1_[T6G]_F5.1_[T8C]_[T9C]_T5.1]
  Kd: 1110 nM

## UCUCUUUGUACCGGCCUCUCUU (ssRNA) [Ic_S1_P5E.1_K5.1_C5.1_H5.1_A5.1_[T5C]_[T6C]_[A7G]_F5.1_[T8G]_[T9C]_[A10C]_T5.1]
  Kd: > 2300 nM

## UCUCUUUGUAACCCAAUCUCUU (ssRNA) [Ic_S1_P5E.1_K5.1_C5.1_H5.1_A5.1_[T5A]_[T6C]_[A7C]_F5.1_[T8C]_[T9A]_T5.1]
  Kd: 1740 nM

## UCUCUUUGUAUUUGCCUCUCUU (ssRNA) [Ic_S1_P5E.1_K5.1_C5.1_H5.1_A5.1_[A7T]_F5.1_[T8G]_[T9C]_[A10C]_T5.1]
  Kd: 568 nM
